Source: IntAct's records for PubMed 29374162

B1: Interleukin-3 receptor subunit alpha (Homo sapiens), P26951-1 (parent)
chain: MVLLWLTLLLIALPCLLQTKEDPNPPITNLRMKAKAQQLTWDLNRNVTDIECVKDADYSMPAVNNSYCQFGAISLCEVTNYTVRVANPPFSTWILFPENSGKPWAGAENLTCWIHDVDFLSCSWAVGPGAPADVQYDLYLNVANRRQQYECLHYKTDAQGTRIGCRFDDISRLSSGSQSSHILVRGRSAAFGIPCTDKFVVFSQIEILTPPNMTAKCNKTHSFMHWKMRSHFNRKFRYELQIQKRMQPVITEQVRDRTSFQLLNPGTYTVQIRARERVYEFLSAWSTPQRFECDQEEGANTRAWRTSLLIALGTLLALVCVFVICRRYLVMQRLFPRIPHMKDPIGDSFQNDKLVVWEAGKAGLEECLVTEVQVVQKT
partner: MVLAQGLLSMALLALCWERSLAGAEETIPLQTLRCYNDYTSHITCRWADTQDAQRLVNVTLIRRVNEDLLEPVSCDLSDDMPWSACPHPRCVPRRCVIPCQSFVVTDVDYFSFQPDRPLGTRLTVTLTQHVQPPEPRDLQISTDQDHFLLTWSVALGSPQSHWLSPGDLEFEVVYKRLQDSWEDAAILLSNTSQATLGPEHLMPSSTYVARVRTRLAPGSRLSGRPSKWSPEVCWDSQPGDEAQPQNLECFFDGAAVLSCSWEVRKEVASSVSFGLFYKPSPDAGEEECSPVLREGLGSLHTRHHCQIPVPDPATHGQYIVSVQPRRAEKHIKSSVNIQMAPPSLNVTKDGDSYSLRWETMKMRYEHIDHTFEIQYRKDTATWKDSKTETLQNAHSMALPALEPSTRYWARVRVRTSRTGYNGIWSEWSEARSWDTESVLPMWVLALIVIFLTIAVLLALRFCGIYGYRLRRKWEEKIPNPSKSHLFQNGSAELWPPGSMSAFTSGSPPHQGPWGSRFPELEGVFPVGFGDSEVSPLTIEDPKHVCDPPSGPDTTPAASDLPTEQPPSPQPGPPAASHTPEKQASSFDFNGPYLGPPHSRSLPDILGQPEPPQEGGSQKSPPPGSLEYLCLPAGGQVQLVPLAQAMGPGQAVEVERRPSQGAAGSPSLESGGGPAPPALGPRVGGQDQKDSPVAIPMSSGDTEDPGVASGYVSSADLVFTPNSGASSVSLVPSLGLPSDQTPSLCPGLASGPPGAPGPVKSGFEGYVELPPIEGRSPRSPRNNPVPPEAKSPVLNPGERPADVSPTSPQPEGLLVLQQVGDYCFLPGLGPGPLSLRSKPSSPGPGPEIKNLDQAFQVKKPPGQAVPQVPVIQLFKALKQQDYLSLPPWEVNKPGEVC

Variants of: B1
Settings: with il3rb_human CSF2RB

effect of a mutation on the interaction | Variant
with no effect | MVLLWLTLLLIALPCLLQTKEDPNPPITNLRMKAKAQQLTWDLNRNVTDIECVKDADYSMPAVNNSYCQFGAISLAEVTNYTVRVANPPFSTWILFPENSGKPWAGAENLTCWIHDVDFLSCSWAVGPGAPADVQYDLYLNVANRRQQYECLHYKTDAQGTRIGCRFDDISRLSSGSQSSHILVRGRSAAFGIPATDKFVVFSQIEILTPPNMTAKCNKTHSFMHWKMRSHFNRKFRYELQIQKRMQPVITEQVRDRTSFQLLNPGTYTVQIRARERVYEFLSAWSTPQRFECDQEEGANTRAWRTSLLIALGTLLALVCVFVICRRYLVMQRLFPRIPHMKDPIGDSFQNDKLVVWEAGKAGLEECLVTEVQVVQKT [C76A;C195A]
with no effect | MVLLWLTLLLIALPCLLQTKEDPNPPITNLRMKAKAQQLTWDLNRNVTDIECVKDADYSMPAVNNSYCQFGAISLCEVTNYTVRVANPPFSTWILFPENSGKPWAGAENLTCWIHDVDFLSCSWAVGPGAPADVQYDLYLNVANRRQQYECLHYKTDAQGTRIGCRFDDISRLSSGSQSSHILVRGRSAAFGIPCTLKFVVFSQIEILTPPNMTAKCNKTHSFMHWKMRSHFNRKFRYELQIQKRMQPVITEQVRDRTSFQLLNPGTYTVQIRARERVYEFLSAWSTPQRFECDQEEGANTRAWRTSLLIALGTLLALVCVFVICRRYLVMQRLFPRIPHMKDPIGDSFQNDKLVVWEAGKAGLEECLVTEVQVVQKT [D197L]
